Here are results for 6 molecules from patent US20120219559A1 (Johns Hopkins, published 2012).

For one assay, the target named is T1, T61A.
T1 sequence (chain, by the resolver, C terminal GFP fusion, not carried in the letters): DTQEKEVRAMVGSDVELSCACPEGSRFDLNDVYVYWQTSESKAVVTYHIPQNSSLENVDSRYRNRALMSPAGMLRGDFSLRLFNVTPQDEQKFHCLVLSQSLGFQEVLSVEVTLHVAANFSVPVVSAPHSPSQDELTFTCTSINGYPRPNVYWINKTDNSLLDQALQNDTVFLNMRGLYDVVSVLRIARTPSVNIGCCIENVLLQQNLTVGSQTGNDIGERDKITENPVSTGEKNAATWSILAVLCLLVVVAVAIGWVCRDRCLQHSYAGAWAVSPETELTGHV
The assay can be described thus: flow cytometry on 293T cells expressing B7-H2-GFP mutants; normalised to wild type B7-H2 (100%) and vector control (0%).

Assay [1] concerns the target human CD28, full length, expressed on cells (CD28+293T cells) (human) (UniProt P10747). The assay can be described thus: cell-based or functional assay.
In another assay the target is B7-H1 (Mus musculus, UniProt Q9EP73). Put plainly: CDS well image, 293T cells transfected with the mouse gene, stained with the mouse fusion protein.
The target in the next assay is CTLA-4 (Mus musculus, UniProt P09793). Described as above.
In assay [2] the target is T2, mouse B7-H2, full length, expressed on 293T cells (mouse, UniProt Q9JHJ8 44-322).
T2 construct: whole, on cells
T2 sequence (looked up): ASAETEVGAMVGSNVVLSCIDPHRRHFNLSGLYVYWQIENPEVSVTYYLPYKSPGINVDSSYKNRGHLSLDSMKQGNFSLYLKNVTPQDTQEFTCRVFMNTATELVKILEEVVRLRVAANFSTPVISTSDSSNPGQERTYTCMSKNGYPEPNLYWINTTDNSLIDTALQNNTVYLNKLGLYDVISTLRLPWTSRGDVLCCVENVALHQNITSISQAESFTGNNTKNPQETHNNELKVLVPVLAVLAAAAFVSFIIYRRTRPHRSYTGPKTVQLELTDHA
The description is as above.

The target of the next assay is T3, ICOS (Mus musculus, UniProt Q9WVS0).
T3 sequence (membrane protein, looked up): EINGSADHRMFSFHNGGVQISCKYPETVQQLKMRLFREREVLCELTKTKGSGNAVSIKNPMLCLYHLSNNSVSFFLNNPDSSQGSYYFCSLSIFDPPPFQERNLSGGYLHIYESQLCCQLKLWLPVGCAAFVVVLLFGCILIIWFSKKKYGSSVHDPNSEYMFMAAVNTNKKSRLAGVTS
Described as above.

Another assay concerns the target T4, B7-DC (Mus musculus, UniProt Q9WUL5).
T4 sequence (membrane protein, looked up): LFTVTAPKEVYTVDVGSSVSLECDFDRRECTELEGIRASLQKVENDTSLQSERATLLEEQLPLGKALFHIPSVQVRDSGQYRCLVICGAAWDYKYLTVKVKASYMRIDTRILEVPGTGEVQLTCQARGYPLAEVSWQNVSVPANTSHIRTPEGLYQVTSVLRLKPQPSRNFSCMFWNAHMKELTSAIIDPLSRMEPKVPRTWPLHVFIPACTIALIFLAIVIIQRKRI
The description is as above.

For a further assay, the target named is T5, B7-1.
T5 chain: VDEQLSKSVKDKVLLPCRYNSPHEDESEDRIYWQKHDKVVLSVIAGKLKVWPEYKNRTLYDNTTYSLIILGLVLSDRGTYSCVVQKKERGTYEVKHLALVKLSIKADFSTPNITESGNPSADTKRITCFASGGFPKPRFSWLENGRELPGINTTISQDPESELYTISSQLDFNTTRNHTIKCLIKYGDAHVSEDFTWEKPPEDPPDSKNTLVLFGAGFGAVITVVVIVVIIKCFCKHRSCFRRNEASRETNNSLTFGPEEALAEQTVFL
The description is as above.

A further assay deals with T6, CD28 (Mus musculus, UniProt P31041).
T6 sequence (membrane protein, looked up): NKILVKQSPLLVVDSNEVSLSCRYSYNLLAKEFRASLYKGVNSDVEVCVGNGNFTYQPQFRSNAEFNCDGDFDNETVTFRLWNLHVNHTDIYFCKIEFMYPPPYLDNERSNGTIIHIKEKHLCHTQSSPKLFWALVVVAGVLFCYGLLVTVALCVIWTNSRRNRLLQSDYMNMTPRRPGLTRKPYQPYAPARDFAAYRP
Described as above.

A further assay concerns the target T7, PD-1 (Mus musculus, UniProt Q02242).
T7 sequence (membrane protein, looked up): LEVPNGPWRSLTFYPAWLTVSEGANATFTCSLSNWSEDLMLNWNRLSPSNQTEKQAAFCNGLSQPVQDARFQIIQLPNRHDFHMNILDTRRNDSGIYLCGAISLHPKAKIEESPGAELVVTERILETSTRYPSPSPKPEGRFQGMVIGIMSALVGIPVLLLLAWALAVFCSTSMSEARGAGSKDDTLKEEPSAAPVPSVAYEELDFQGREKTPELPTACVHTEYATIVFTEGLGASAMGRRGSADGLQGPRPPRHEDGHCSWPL
The description is as above.

The target of a further assay is T8, B7-2.
T8 chain: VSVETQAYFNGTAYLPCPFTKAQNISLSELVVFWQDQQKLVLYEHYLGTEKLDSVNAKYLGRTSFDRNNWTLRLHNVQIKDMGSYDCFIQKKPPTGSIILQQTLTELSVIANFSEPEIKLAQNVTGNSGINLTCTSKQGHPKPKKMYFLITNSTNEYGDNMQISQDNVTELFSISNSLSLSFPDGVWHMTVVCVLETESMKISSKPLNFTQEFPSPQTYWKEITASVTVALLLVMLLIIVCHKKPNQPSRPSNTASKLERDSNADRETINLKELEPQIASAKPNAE
Described as above.

Assay [3] has as its target T9, mouse B7-H2/hB7-H2IgV chimera, expressed on 293T cells (human; mouse, UniProt Q9JHJ8 150-322).
T9 construct: range 150-C-terminus; Mouse B7-H2 Ig V region (Met1-Val149) replaced with the corresponding human region (Met1-Gln123) in the mouse B7-H2 full length gene; also called chimeric gene product
T9 sequence: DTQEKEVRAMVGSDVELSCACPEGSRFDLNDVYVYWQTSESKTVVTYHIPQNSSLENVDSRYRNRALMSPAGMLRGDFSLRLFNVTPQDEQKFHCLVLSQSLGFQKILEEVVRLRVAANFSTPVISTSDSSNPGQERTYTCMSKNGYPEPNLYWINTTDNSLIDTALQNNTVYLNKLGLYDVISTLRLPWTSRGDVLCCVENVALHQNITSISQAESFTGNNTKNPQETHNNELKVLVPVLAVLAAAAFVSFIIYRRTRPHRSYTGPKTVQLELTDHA
The assay can be described thus: flow cytometry, 293T cells expressing the mouse B7-H2/hB7-H2IgV chimera (mB7-H2/hB7-H2IgV+ 293T). On the procedure: FIGS. 19A-19B. […] The results were analyzed by flow cytometry.
Background: In flow cytometry, cells or beads pass a laser one at a time.

Assay [4] has as its target T10, human B7-H7Ig fusion protein (human, UniProt Q9UM44 23-344).
T10 construct: not shown: Ig Fc tag; made from pMIgV or pHIgV plasmid and detected with anti-mouse Ig
T10 sequence: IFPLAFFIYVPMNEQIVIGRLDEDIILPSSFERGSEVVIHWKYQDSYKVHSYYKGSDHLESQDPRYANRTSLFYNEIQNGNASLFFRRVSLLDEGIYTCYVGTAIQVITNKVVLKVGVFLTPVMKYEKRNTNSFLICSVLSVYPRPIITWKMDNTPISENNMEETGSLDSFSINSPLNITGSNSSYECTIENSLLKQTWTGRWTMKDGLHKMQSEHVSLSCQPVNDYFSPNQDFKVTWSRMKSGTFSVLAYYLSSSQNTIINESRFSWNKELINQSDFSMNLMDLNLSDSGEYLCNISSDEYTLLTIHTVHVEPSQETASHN
The assay can be described thus: CDS screen: 384-well plate of 293T cells, one human transmembrane gene a well; B7-H7Ig plus anti-mIg FMAT blue; total fluorescence per well.

B7-H1, sequence (Q9EP73 19-290 limits assumed): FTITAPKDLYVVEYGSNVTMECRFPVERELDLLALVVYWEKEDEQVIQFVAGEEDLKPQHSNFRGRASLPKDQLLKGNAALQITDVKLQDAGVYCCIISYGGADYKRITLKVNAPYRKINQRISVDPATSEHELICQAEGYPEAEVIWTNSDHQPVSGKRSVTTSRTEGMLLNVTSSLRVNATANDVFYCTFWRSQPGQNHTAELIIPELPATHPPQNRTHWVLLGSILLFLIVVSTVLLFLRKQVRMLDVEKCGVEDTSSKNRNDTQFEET
human CD28, full length, expressed on cells (CD28+293T cells) (human), sequence (P10747 19-220): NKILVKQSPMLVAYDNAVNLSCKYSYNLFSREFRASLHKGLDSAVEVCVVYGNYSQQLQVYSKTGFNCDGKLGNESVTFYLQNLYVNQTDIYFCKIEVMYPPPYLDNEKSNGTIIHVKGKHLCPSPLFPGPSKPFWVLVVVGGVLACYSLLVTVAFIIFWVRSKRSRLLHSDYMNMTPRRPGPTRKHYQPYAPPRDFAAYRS

“human CTLA4Ig fusion protein (from UniProt P16410 37-162) (Fc fusion)”: the Binding Percentage% with T61A was 32.1%.
“mouse anti-human CD28 mAb CD28.6 (blocking) (antibody)” returned a tetanus toxoid-elicited proliferation of memory T cells; inhibition in [1] greater than 50%.

B1: B7-2Ig (Fc fusion)
chain: VSVETQAYFNGTAYLPCPFTKAQNISLSELVVFWQDQQKLVLYEHYLGTEKLDSVNAKYLGRTSFDRNNWTLRLHNVQIKDMGSYDCFIQKKPPTGSIILQQTLTELSVIANFSEPEIKLAQNVTGNSGINLTCTSKQGHPKPKKMYFLITNSTNEYGDNMQISQDNVTELFSISNSLSLSFPDGVWHMTVVCVLETESMKISSKPLNFTQEFPSPQTYWK
notes: also called mouse B7-2Ig fusion protein; not shown: Ig (Fc) part and any linker of the R&D Systems fusion protein
B1: the binding result is “no binding” with B7-H1; “binds” in the assay with CTLA-4; “no binding” in [2]; “no binding” in the assay with ICOS; “no binding” with B7-DC; “no binding” with B7-1. The binding result in the assay with CD28 was “binds”; with PD-1, “no binding”; in the assay with B7-2 it was “no binding”.

B2: B7-1Ig (Fc fusion)
chain: VDEQLSKSVKDKVLLPCRYNSPHEDESEDRIYWQKHDKVVLSVIAGKLKVWPEYKNRTLYDNTTYSLIILGLVLSDRGTYSCVVQKKERGTYEVKHLALVKLSIKADFSTPNITESGNPSADTKRITCFASGGFPKPRFSWLENGRELPGINTTISQDPESELYTISSQLDFNTTRNHTIKCLIKYGDAHVSEDFTWEKPPEDPPDSKN
notes: also called mouse B7-1Ig fusion protein; not shown: Ig (Fc) part and any linker of the R&D Systems fusion protein
In the case of B2, the binding result (in assay [2]; with ICOS; with B7-DC; with B7-1; with PD-1; with B7-2) was “no binding” each time.

B3: mouse CD28Ig fusion protein (Fc fusion, UniProt P31041 20-149, looked up)
chain: NKILVKQSPLLVVDSNEVSLSCRYSYNLLAKEFRASLYKGVNSDVEVCVGNGNFTYQPQFRSNAEFNCDGDFDNETVTFRLWNLHVNHTDIYFCKIEFMYPPPYLDNERSNGTIIHIKEKHLCHTQSSPK
notes: Bought from R&D Systems; Ig (Fc) part not given
For B3, the binding result (in the assay with B7-H1; in the assay with CTLA-4; in assay [2]; in the assay with ICOS; in the assay with B7-DC; with CD28) was “no binding” in each case. In addition, the binding result was “no binding” in the assay with PD-1 and “binds” in [3].

B4: human B7-H7CR, full length, expressed on 293T cells (B7-H7CR+293T cells) (receptor)
chain: LSVQQGPNLLQVRQGSQATLVCQVDQATAWERLRVKWTKDGAILCQPYITNGSLSLGVCGPQGRLSWQAPSHLTLQLDPVSLNHSGAYVCWAAVEIPELEEAEGNITRLFVDPDDPTQNRNRIASFPGFLFVLLGVGSMGVAAIVWGAWFWGRRSCQQRDSGNSPGNAFYSNVLYRPRGAPKKSEDCSGEGKDQRGQSIYSTSFPQPAPRQPHLASRPCPSPRPCPSPRPGHPVSMVRVSPRPSPTQQPRPKGFPKVGEE
notes: This id also stands for B7-H7CR on human CD4+ T cells in the functional rows; also called TMIGD2; B7-H7R
With B4, the binding result in assay [4] is “binds”.
